T1: human ASGR-1 mutant construct H203 (human, UniProt P07306 1-291)
T1 construct: Arg/Glu scanning: non-arginine residues were changed to arginine; Transiently expressed on CHO-S cells
T1 sequence: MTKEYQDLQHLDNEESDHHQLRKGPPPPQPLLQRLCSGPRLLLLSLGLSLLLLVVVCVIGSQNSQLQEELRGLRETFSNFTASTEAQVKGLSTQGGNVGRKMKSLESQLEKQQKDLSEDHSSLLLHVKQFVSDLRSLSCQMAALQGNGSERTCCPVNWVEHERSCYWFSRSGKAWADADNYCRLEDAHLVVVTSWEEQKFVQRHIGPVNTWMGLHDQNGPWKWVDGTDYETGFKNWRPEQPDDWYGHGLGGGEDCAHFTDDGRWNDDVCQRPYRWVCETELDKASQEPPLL


Target: T1, human ASGR-1 mutant construct H203
Experiment: FACS ratio: H203 normalized value / wt normalized value
Procedure, shortened: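 Transiently transfected CHO-S cells expressing wild-type or mutant hASGR-1 incubated with antibody at 5 ug/ml, 1 h at 4 °C; bound antibody detected by Alexa Fluor 647 anti-Fc plus 7-AAD, by flow cytometry. Binding normalized to expression using an unaffected antibody (65C12), then to wild type; hits defined as >3× IQR above third quartile.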

Row | Binder | Normalization to wt ASGR1 Binding
1 | 193E7 (antibody, V domains shown, mAb) VH: QVQLQQWGAGLLKPSETLSLTCAVYGGSFSGYFWTWIRQPPGKGLEWIGEINHSGSTNYNPSLKSRVTISVDTSKNQFSLKLSSVTAADTAVYYCARDYGADYWGQGTLVAVSA VL: DIQMTQSPSSLSASVGDRVTITCRASQGIRNDLGWYQQKPGKAPKRLIYSASSLQRGVPSRFSGSGSGTEFTLTISSLQPEDFATYYCLQHKRYPLTFGGGTKVEIK | 1.18
2 | 75G3 (antibody, V domains shown, mAb) VH: QVQLQQWGAGLLKPSETLSLTCAVYGGSLSGSYWSWIRQPPGKGLEWIGEINLSGSTNYNPSLKSRVTISVDTSKSQFSLTLRSVTAADTAVYYCARDYGGLDYWGQGTLVTVSS VL: EIVLTQSPGTLSLSPGERATLSCRARQNVDSSYLAWYQQKPGQAPRLLIYGASSRATGIPDRFSGSGSGTDFTLTISRLEPEDFAVFYCQQYERSPWTFGQGTKVEIK | 1.18
3 | 218G4 (antibody, V domains shown, mAb) VH: QVQLVESGGGVVQPGRSLRLSCAASGFTFSSYGLHWVRQAPGKGLEWVAVIWYDGSNKYYADSVKGRFTISRDNSKNTLYLQMNSLRVEDTAVYYCANWYYYYYGMDVWGQGTTVTVSS VL: QSVLTQPPSVSAAPGQKVTISCSGSSSNIGNNYVSWYQQLPGTAPKLLLYDSNKRPSGIPARFSGSKSGTSATLGITGLQTGDEADYYCGTWDSSLNTVVFGGGTKLTVL | 0.707
4 | 197G3 (antibody, V domains shown, mAb) VH: QVQLVESGGGVVQPGRSLRLSCVASGFTFSSHGMHWVRQAPGKGLEWVAVIWYDGSNKNYADSVKGRFTISRDNSKNTLYLQMNSLRAEDTAVYYCARDPSVGYDGMDVWGQGTTVTVSS VL: DIQMTQSPSSLSASVGDRVTITCRASQGIGNHLAWFQQKPGKAPKSLIYAASSLQSGVPSKFSGSRSGTDFSLTISSLQPEDFATYYCQQYSNYPVTFGPGTKVDIK | 1.75
5 | 176H4 (antibody, V domains shown, mAb) VH: QVQLVESGGGVVQPGRSLRLSCAASGFTFSSYGMHWVRQAPGKGLEWVAIIWYDGSYKYYADSVKGRFTISRDNSKNTLYLQMSSLRAEDTAVYYCARDAHDFWSGYFAYWGQGALVTVSS VL: DIVMTQTPLSLSVTPGQPASISCKSSQSLLHGDGKTYLYWYLQKPGQPPQLLIYEVSNRFSGVPDRFSGSGSGTDFTLKISRVEAEDVGIYYCMQSIQIPWTFGQGTRVEIK | 1.5
6 | 194C10 (antibody, V domains shown, mAb) VH: QVQLQQWGAGLLKPSETLSLTCAVSGGSFRYYYWSWIRQPPGKGLEWFGEINHSGSTNYNPSLKSRVTISIDTSKNQFSLKLRSVTAADTAVYYCARDYGAFDIWGQGTMVTVSS VL: EIVLTQSPGTLSLSPGERATLSCRASPSVNSGYLAWYQQKPGQTPRLLIFGASSRATGIPDRFSASGSGADFTLTISRLEPEDFAVYFCQQYESSPWTFGQGTKVEIK | 0.978
